The target in experiment [1] is T1, native CD30 expressed on cells (L540 Hodgkin's lymphoma cell line) (human, UniProt P28908 19-595).
T1 construct: whole, on cells; also called CD30 on L540 cells; CD30-expressing L540 cells
T1 sequence (looked up): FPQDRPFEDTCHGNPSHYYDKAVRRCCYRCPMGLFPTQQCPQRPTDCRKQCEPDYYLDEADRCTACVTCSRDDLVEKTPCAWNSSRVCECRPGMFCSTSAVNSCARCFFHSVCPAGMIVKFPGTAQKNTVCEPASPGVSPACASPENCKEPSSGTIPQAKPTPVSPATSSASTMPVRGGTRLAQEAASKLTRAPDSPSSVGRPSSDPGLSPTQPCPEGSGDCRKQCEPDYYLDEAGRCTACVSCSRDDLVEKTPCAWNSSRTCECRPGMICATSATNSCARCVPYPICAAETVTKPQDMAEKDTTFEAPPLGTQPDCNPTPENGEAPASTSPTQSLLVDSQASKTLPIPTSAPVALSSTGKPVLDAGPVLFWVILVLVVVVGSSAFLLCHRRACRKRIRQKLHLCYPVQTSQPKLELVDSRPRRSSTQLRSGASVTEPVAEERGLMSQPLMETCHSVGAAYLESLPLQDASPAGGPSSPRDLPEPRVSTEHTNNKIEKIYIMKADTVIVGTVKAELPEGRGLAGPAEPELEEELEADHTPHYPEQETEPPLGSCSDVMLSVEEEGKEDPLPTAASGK
Kind of experiment: flow cytometry on L540 cells at 4 °C, detection with FITC-labeled goat anti-human IgG Fc, mean fluorescence intensity. The procedure: Antibodies were tested for binding to L540, a Hodgkin's lymphoma cell line that expresses high-levels of CD30. […] After 1 hour, the cells were washed with PBS and the bound antibodies were detected by incubating the cells with a FITC labeled goat anti-human IgG Fc-specific probe, at 4° C. The excess probe was washed from the cells with PBS and the cell associated fluorescence was determined by analysis using a FACScalibur instrument.

The target of experiment [2] is T2, recombinant CD30 (supernatant from transfected cells expressing recombinant CD30) (UniProt P28908 19-379, limits assumed).
T2 construct: May be the same preparation as the soluble recombinant CD30 used for immunisation or as m4
T2 sequence (looked up): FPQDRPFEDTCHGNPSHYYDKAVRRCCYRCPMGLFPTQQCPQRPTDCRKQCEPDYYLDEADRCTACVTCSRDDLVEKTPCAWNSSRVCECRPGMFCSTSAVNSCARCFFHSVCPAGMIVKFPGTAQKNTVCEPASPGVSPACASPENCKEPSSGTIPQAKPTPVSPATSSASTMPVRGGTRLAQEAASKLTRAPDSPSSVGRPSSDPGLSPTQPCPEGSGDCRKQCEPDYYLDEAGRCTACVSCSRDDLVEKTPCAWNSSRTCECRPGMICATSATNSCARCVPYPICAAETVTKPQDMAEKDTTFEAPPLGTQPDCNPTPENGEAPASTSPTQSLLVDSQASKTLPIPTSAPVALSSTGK
Kind of experiment: capture ELISA: recombinant CD30 captured on BerH2-coated wells, detection with AP-labeled goat anti-human IgG Fc, OD405. On the procedure: Microtiter wells were coated with BerH2. After blocking the wells with 5% BSA solution, supernatant from transfected cells expressing recombinant CD30 was allowed to react with BER-H2 coated wells. […] After 1 hour, the wells were washed with PBS-tween and the bound antibodies were detected by incubating the cells with an alkaline-phosphatase-labeled goat anti-human IgG Fc-specific probe, at 37° C. The excess probe was washed from the wells and the plate was developed with pNPP developer. The optical density at 405 nm was determined using a microtiter plate reader.
For orientation: ELISA stands for enzyme-linked immunosorbent assay.

Experiment [3] deals with native CD30 expressed on cells (L540 Hodgkin's lymphoma cell line) (human) (UniProt P28908). Description: cell-based or functional assay.
The target is the same in experiment [4]. Kind of experiment: flow cytometry on L540 cells. On the technique in general: A flow cytometer gives signals particle by particle.
The target in experiment [5] is T3, Human CD30 antigen (Medarex, Inc.) (human) (UniProt P28908).
T3 sequence (looked up): T2 sequence (looked up)
Description: SPR (Biacore 3000), 5F11 captured on protein A, CD30 as analyte, 1:1 Langmuir fit, experiment 1. Background: Surface plasmon resonance follows binding to a sensor surface in real time, without labels.

In experiment [6] the target is T3, Human CD30 antigen (Medarex, Inc.) (human). Description: SPR (Biacore 3000), 5F11 captured on protein A, CD30 as analyte, 1:1 Langmuir fit, experiment 2.
For experiment [7], the target named is native CD30 expressed on cells (L540 Hodgkin's lymphoma cell line) (human) (UniProt P28908). Kind of experiment: flow cytometry on L540 cells at 4 °C, detection with FITC-labeled goat anti-human IgG Fc, mean fluorescence intensity.
Experiment [8] addresses T4, recombinant CD30 (supernatant from transfected cells expressing recombinant CD30) (UniProt P28908).
T4 sequence (looked up): T2 sequence (looked up)
Description: capture ELISA: recombinant CD30 captured on BerH2-coated wells, detection with AP-labeled goat anti-human IgG Fc, OD405.

This is an account of results in patent US20040006215A1 (Bristol-Myers Squibb, published 2004).

Several values for one entry are separate records, joined by “and”; a condition that tells them apart may be missing. Identical values can stand only once.

B1: human monoclonal antibody (HuMab) 2H9 (antibody, V domains shown)
VH: QVQLQQWGAGLLKPSETLSLTCAVYGGSFSGYYWSWIRQPPGKGLEWIGEINHSGSTKYTPSLKSRVTISVDTSKHQFSLKLSSVTAADTAVYYCARETVYYFDLWGRGTLVTVSS
VL: EIVLTQSPATLSLSPGERATLSCRASQSVSSNLAWYQQKPGQAPRLLIYDASNRATGIPARLSGSGSGTDFTLTISSLEPEDFAVYYCQQRSNWPWTFGQGTKVEIK
Turning to B1, the results for the 50% effective concentration (EC50 (read off the curve)) in experiment [1] and in experiment [2] were roughly 0.1 µg/mL and roughly 0.03 µg/mL, respectively.

B2: human monoclonal antibody (HuMab) 5F11 (antibody, V domains shown)
VH: QVQLQQWGAGLLKPSETLSLTCAVYGGSFSAYYWSWIRQPPGKGLEWIGDINHGGGTNYNPSLKSRVTISVDTSKNQFSLKLNSVTAADTAVYYCASLTAYWGQGSLVTVSS
VL: DIQMTQSPTSLSASVGDRVTITCRASQGISSWLTWYQQKPEKAPKSLIYAASSLQSGVPSRFSGSGSGTDFTLTISSLQPEDFATYYCQQYDSYPITFGQGTRLEIK
The molecule B2 showed an IC50 of growth inhibition (XTT assay) of L540 and Karpas 299 cells, 5F11 cross-linked by goat-anti-human IgG in experiment [3] of 10 µg/mL. This molecule also gave a concentration at saturation in experiment [4] of less than 1 µg/mL. Further, in experiment [5], the dissociation constant (Kd) is 1.23 nM and 1.36 nM; the koff is 7.47e-05 s⁻¹ and 7.03e-05 s⁻¹; the on-rate constant (kon) was 60900 M⁻¹ s⁻¹ and 51600 M⁻¹ s⁻¹. Also, in experiment [6], the dissociation constant (Kd) was 1.14 nM and 1.12 nM; the koff was 6.58e-05 s⁻¹ and 6.86e-05 s⁻¹; the on-rate constant (kon) is 57700 M⁻¹ s⁻¹ and 61300 M⁻¹ s⁻¹. Further, the concentration giving a half-maximal response (EC50 (read off the curve)) in experiment [7] was found to be 0.05 µg/mL. Besides, the EC50 (read off the curve) in experiment [8] was 0.04 µg/mL.

Broadly, the EC50 (read off the curve) is the concentration that produces a half-maximal response. A word on the Kd: it is a measure of binding affinity in units of concentration. A lower Kd goes with tighter binding. What is called koff is the first-order rate constant of dissociation. Higher therefore signals a short-lived complex. The term kon denotes the second-order rate constant of association. The low end stands for slower complex formation, the high end for faster complex formation.
